B1: Double-stranded RNA-specific adenosine deaminase, residues 296 to 358; numbered along this chain, P55265 (parent)
chain: MAEIKEKICDYLFNVSDSSALNLAKNIGLTKARDINAVLIDMERQGDVYRQGTTPPIWHLTDK

Variants of: B1
Assay: abundance fitness (aPCA) (normalised: wild type 0, dead -1); higher = more abundant; growth selection in yeast, the domain comes from the species named
Settings: Homo sapiens

Abundance fitness of substitutions, site by site:
I27: M -0.359 | R -0.584 | W -0.818 | Q -0.507 | H -0.548 | G -0.611 | P -0.452 | A -0.471 | L -0.01 | E -0.274 | D -0.277 | Y -0.944 | S -0.435 | K -0.324 | V -0.162 | N -0.538
L21: N 0.067 | A 0.263 | C -0.136 | W -0.071 | Q 0.158 | D 0.339 | E 0.476 | V -0.015 | R -0.02 | M 0.029 | T 0.125 | G 0.009 | I -0.044 | S 0.05 | Y -0.111 | H -0.046
I35: D -0.225 | L -0.279 | S -0.343 | C -0.348 | P -0.257 | W -1.1 | Q -0.348 | F -0.681 | T -0.217 | K -0.323 | M -0.523 | V -0.034 | Y -0.743 | G -0.627 | H -0.556 | A -0.326
A20: F -0.311 | E -0.216 | L -0.42 | G -0.45 | W -0.627 | S -0.228 | Q -0.472 | H -0.578 | R -0.615 | D -0.64 | P -0.673 | I -0.68 | N -0.481 | T -0.295 | Y -0.901 | V -0.446 | K -0.606
G28: V -0.713 | A -0.453 | Y -0.982 | T -0.655 | W -0.886 | L -0.97 | E -0.15 | D -0.186 | P -0.234 | M -0.805 | R -0.802 | S -0.474 | Q -0.606 | F -0.796 | N -0.43 | K -0.229 | I -1.01 | H -0.508
K25: L -0.404 | T -0.32 | C -0.36 | W -0.82 | Q -0.024 | M -0.282 | D -0.141 | A -0.213 | N -0.234 | S -0.542 | H -0.083 | Y -0.626 | I -0.578 | P -0.928 | E -0.124
S19: Y -0.5 | T -0.236
A37: D -0.101 | L -0.392 | H 0.039 | G -0.332 | E -0.024 | C -0.417 | M -0.386
T30: I -0.299 | F -0.246 | M -0.204 | P -0.199 | Q -0.021 | Y 0.141 | D 0.413 | V -0.201 | G -0.054 | A 0.128 | H -0.252 | C -0.002 | N 0.127 | S 0.107 | L -0.312 | R -0.352 | E 0.361
S16: D -0.342 | V -0.249 | H -0.108 | T -0.407 | M -0.379 | C -0.25 | Y -0.684 | I -0.543 | A -0.018 | P -0.1 | L -0.525 | W -0.514 | N -0.006 | Q -0.124 | K 0.206
A32: C -0.121 | T -0.018 | P -0.162 | V 0.108 | N -0.232 | H -0.204 | L 0.25 | K -0.37 | S -0.103 | R -0.485 | E 0.159 | Q -0.034 | Y -0.088 | F -0.091 | M 0.088 | I 0.076 | G -0.091
L23: A -0.368 | R -0.592 | P -0.299 | C -0.474 | Q -1.2 | D -0.313 | G -0.403 | M -0.374 | E -0.329 | W -0.682 | S -0.424 | T -0.421 | Y -0.678 | H -0.453 | V -0.316 | F -1.03 | I 0.372 | K -0.531
L29: I -0.025 | S -0.17 | M 0.154 | A -0.103 | F -0.107 | K -0.54 | Q -0.026 | V -0.1 | N 0.041 | T -0.167 | R -0.356 | H -0.325 | G 0.006 | E 0.045 | C -0.125 | P -0.336 | Y -0.136 | D 0.035 | W -0.633
N26: H 0.215 | L -0.429 | F -0.328 | G -0.001 | C -0.338 | S -0.103 | I -0.271 | V 0.044 | T -0.403 | R -0.202 | P -0.629 | A 0.189 | Y -0.114 | Q 0.009 | M -0.328 | D -0.539 | W -0.327 | E 0.075 | K -0.057
D34: F -0.75 | I -0.422 | S -0.397 | G -0.592 | K -0.518 | W -0.984 | A -0.243 | M -0.333 | H -0.578 | L -0.444 | Q -0.283 | P -0.541 | T -0.724 | Y -0.694 | C -0.978 | R -0.699
D17: A 0.405 | M -0.499 | T -0.501
R33: K 0.056 | Y 0.185 | F 0.19 | A 0.365 | E 0.564 | V 0.327 | I 0.262 | N 0.195 | D 0.417 | G 0.207 | T 0.263 | H 0.094 | P -0.272 | L -0.028 | C 0.157 | S 0.342
K31: S 0.285 | P 0.041 | R -0.006 | Q 0.097 | D 0.36 | L -0.53 | H 0.367 | T 0.066 | V -0.67 | N 0.144 | F -0.695 | A -0.098 | G -0.049 | C 0.237 | W -0.635 | E 0.251 | Y 0.173 | I -1.14
N22: I -0.339 | Q 0.162 | W -0.609 | D 0.004 | A -0.297 | R -0.682 | H -0.117 | S -0.323 | E 0.165 | M -0.493 | Y -0.386 | L -0.479 | K -0.424 | T -0.141 | V -0.18 | P -0.219 | G -0.314
A24: C -0.179 | H -0.488 | D -0.838 | N -0.722 | L -0.513 | Y -0.406 | V -0.58 | E -0.447 | G -0.495 | R -0.544 | F -0.566 | Q -0.171 | W -0.707 | K -0.616 | I -0.552 | T -0.276 | P -0.49 | M -0.418
S18: W -0.535 | T -0.388 | Y -0.698 | R -0.721 | M -0.684 | H -0.366 | F -0.816 | I -1.01 | E -0.49 | Q -0.481 | D -0.461 | P -0.83 | N -0.607 | V -0.699 | K -0.549
N36: M -0.184 | V -0.428 | Y -0.232 | C -0.397 | P -0.49 | H 0.081 | L -0.282 | I -0.438 | R -0.38 | W -0.154 | S -0.202 | F -0.455 | D 0.131 | T -0.011 | G -0.366 | Q -0.156 | E 0.406 | K -0.098 | A -0.497

From the Human Domainome abundance scans (Beltran et al. 2025)
